Substitutions are numbered along the chain they refer to.
B1: COVIC-393 (antibody, V domains shown)
VH: EVQLVQSGGGLVQPGGSLKLSCAASGFTFSGSAMHWVRQASGKGLEWVGHIRSKANSYATAYAASVKGRFTISRDDSKNTAYLQMNSLNTEDTAVYYCTREDIVGVPVAKDWFDPWGQGTLVTVSS
VL: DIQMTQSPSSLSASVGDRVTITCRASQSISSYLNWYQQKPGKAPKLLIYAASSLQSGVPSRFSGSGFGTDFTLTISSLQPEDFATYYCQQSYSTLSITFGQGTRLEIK
B2: COVIC-294 (antibody, V domains shown)
VH: EVQLVESGGGLVQPGGSLRLSCAASGITVSSNYMNWVRQAPGKGLEWVSVIYSGGSTFYADSVKGRFTIARDNSKNTLYLQMNSLRAEDTAVYYCAREGLLVGPTGRGLGMDVWGQGTTVTVSS
VL: DIQMTQSPSSLSASVGDRVTITCQASQDINNYLNWYQQKPGKAPKLLIYDASNLQTGVPSRFSGSGSGTDFTFTISSLQPEDIATYYCQQYADLPYTFGQGTKLQIK
B3: COVIC-293 (antibody, V domains shown)
VH: QVTLRESGPALVKPTQTLTLTCTFSGFSLSTSGMCVSWIRQPPGKALQWLARIDWDDDKYYSTSLKTRLTISKDTSKNQVVLTVTNVDPVDTGTYYCARVQVAAAGSPYDYWGQGTLVTVSS
VL: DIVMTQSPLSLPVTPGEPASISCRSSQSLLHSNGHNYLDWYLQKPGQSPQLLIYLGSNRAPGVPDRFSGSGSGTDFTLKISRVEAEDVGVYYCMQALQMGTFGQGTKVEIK
B4: COVIC-292 (antibody, V domains shown)
VH: QMQLVQSGPEVKKPGTSVKVSCKASGFTFSGSAVQWVRQARGQRLEWIGWIVVGSGNTNYAQRFQERVTITRDMSTSTAYMELSSLRSEDTAVYYCAAPYCSSTSCRDGFDIWGQGTMVTVSS
VL: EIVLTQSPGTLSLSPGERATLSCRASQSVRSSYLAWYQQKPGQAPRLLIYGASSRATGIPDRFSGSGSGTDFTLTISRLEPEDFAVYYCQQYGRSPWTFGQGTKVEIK
B5: COVIC-252 (antibody, V domains shown)
VH: EVQLLESGGGLIQPGGSLRLSCAASGFIVSSNYMSWVRQAPGKGLEWVSVIYSGGSTFYADSVKGRFTISRDNSNNTLYLQMNSLRAEDTAVYYCARDYGDFYFDYWGQGTLVTVSS
VL: DIQMTQSPSTLSVSPGERATLSCRASQSVSSNLAWYQQKPGQAPRLLIYGASTRATGIPVRFSGSGSGTESTLTISSLQSEDFAVYYCQQYNKWPRTFGQGTKVEIK
B6: COVIC-59 (antibody, V domains shown)
VH: QVQLQESGGGLVQAGGSLRLSCAASGRTFSEYAMGWFRQAPGKEREFVATISWSGGSTYYTDSVKGRFTISRDNAKNTVYLQMNSLKPDDTAVYYCAAAGLGTVVSEWDYDYDYWGQGTQVTVSS
B7: COVIC-55 (antibody, V domains shown)
VH: B6 VH
B8: COVIC-151 (antibody, V domains shown)
VH: QVQLQESGPGLVKPSQTLSLTCTVSGGSISSYGYYWNWIRQHPGKGLEWIGYIYYSGSTYYNPSLKSRVTISVDTSKNQLSLRLNSVSAADTAVYYCARDFGGNSNYFDYWGQGTLVTVSS
VL: AIQLTQSPSSLSASVGDRVTITCRTSQGISSALAWYQQKPGKAPKLLIYDASSLESGVPSRFSGSGSGTDFTLTISSLQPEDFATYYCQQFNSYPLTFGGGTKVEIKR
B9: COVIC-170 (antibody, V domains shown)
VH: EVQLVQSGAEVKKPGESLKISCKGSGYSFTSYWIGWVRQMPGKGLEWMGIIYPGDSDTRYSPSFQGQVTISADKSISTAYLQWSSLKASDTAMYYCVRSYNWNYFDYWGQGTLVTVSS
VL: B8 VL with T25A, A32G, P40A, A51V, N92L, L96W, G100Q
B10: COVIC-141 (antibody, V domains shown)
VH: QVQLQESGPGLVKPSQTLSLTCTVSGGSISSGGYYWSWIRQHPGKGLEWIGYIYYSGNTYYNPSLKSRVTMSVDTSKNQFSLKLTSVTAADTAVYYCASTARPLTNAEYFQHWGQGTLVTVSS
VL: DIQLTQSPGTLSLSPGERATLSCRASQSVSSSYLAWYQQKPGQAPRLLIYGTSSRATGIPDRFSGSGSGTDFTLTISRLEPEDFAVYYCQQYRTFGQGTKVEIK
B11: COVIC-63 (antibody)
chain: QVQLQESGGGLVQAGGSLRLSCAASGRTFSEYAMGWFRQAPGKEREFVATISWSGGSTYYTDSVKGRFTISRDNAKNTVYLQMNSLKPDDTAVYYCAAAGLGTVVSEWDYDYDYWGQGTQVTVSSGGSGGSQVQLQESGGGLVQAGGSLRLSCAASGRTFSEYAMGWFRQAPGKEREFVATISWSGGSTYYTDSVKGRFTISRDNAKNTVYLQMNSLKPDDTAVYYCAAAGLGTVVSEWDYDYDYWGQGTQVTVSSGGGGSGGGGSEPKSCDKTHTCPPCPAPELLGGKKKPLDGEYFTLQIRGRERFEMFRELNEALELKDAQAGKEPG
B12: COVIC-296 (antibody, V domains shown)
VH: EVQLVESGGGLVQPGGSLRLSCAASGITVSSNYMNWVRQAPGKGLEWVSVIYSGGSTFYADSVKGRFTVSRHNSKNTLYLQMNSLRVEDTAVYYCAREGLVGTALAFDYWGQGNLVTVSS
VL: DIQMTQSPSSLSASVGDRVTITCRASQSINNYLNWYQQKPGKAPNLLIYAASSLQSGVPSRFSGSGSGTDFTLTINSLQPEDFATYYCQQSYSTPPYTFGQGTKLEIK
B13: COVIC-139 (antibody, V domains shown)
VH: EVQLVESGGGVVQPGRSLRLSCAASGFTFSSYGMHWVRQAPGKGLEWVAVISYDGSNKYYADSVKGRFTISRDNSKNTLYLQMNSLRAEDTAVYYCANGFGEYYYYAMDVWGQGTTVTVSS
VL: NFMLTQPHSVSESPGKTVTISCTGSSGSIASNYVQWYQRRPGSAPTTVIYEDNQRPSGVPDRFSASIDSSSNSASLTISGLKTEDEADYYCQSYDSSNWVFGGGTKLTVL
B14: COVIC-136 (antibody, V domains shown)
VH: EVQLLESGGGLIQPGGSLRLSCAASGFTVSSNYMSWVRQAPGKGLEWVSVIYSGGSTYYADSVKGRFTISRDNSKNTLYLQMNSLRAEDTAVYYCARDHVRPGMNIWGQGTMVTVSS
VL: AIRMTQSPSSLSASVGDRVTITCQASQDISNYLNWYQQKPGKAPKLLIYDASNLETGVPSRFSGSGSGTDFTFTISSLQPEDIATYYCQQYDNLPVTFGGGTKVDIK
B15: COVIC-32 (antibody, V domains shown)
VH: QVQLLESGGGLVQPGGSLRLSCAASGFTFSSYAMSWVRQAPGKGLEWASAISGSGGSTYYADSVEGRFTISRDNSKNTLYLQMNSLRAEDTAVYYCAKDTGYCGDDCYIKLIRGGPDYWGQGTLVTVSS
VL: DIVMTQSPLSLPVTLGQPASISCRSSQSLVYSDGNTFLNWFQQRPGQSPRRLIYQVSNRDSGVPDRFSGSGSGTDFTLKISRVEAEDVGVYYCMQGTHWPRTFGQGTKLEIK
B16: COVIC-369 (antibody, V domains shown)
VH: EVRLVESGGGLIQPGGSLTLSCAASGVIVSRNYMNWVRQAPGKGLEWVSVIYSGGSTFYADSVKGRFTISRDNSKNTLYLQMNSLRAEDTAVYYCARWGPNYYGSGSDHYNSYGMDVWGQGTTVTVSS
VL: EIVLTQSPGTLSLSPGESATLSCRASQGVSSSSLAWYQQRPGQAPRLLMYGASSRATGIPDRFSGSGSGTDFTLTISRLEPEDFAVYYCQQSGSSPQYTFGQGTKLEIKR
B17: COVIC-317 (antibody)
chain: EVQLLESGGGLVQPGGSLRLSCAASGRTFSEYAMGWFRQAPGKGLEFVSTISWSGGSTYYADSVKGRFTISRDNSKNTLYLQMNSLRAEDTAVYYCAAAGLGTVVSEWDYDYDYWGQGTLVTVSSGGGGSGGGGSASTKGPSVFPLAPSSKSTSGGTAALGCLVKDYFPEPVTVSWNSGALTSGVHTFPAVLQSSGLYSLSSVVTVPSSSLGTQTYICNVNHKPSNTKVDKKVEPKSCDKTHTAPELLGGPSVFLFPPKPKDTLMISRTPEVTCVVVDVSHEDPEVKFNWYVDGVEVHNAKTKPREEQYNSTYRVVSVLTVLHQDWLNGKEYKCKVSNKALPAPIEKTISKAKGQPREPQVYTLPPSRDELTKNQVSLTCLVKGFYPSDIAVEWESNGQPENNYKTTPPVLDSDGSFFLYSKLTVDKSRWQQGNVFSCSVMHEALHNHYTQKSLSLSPGKKKKPLDGEYFTLQIRGRERFEMFRELNEALELKDAQAGKEPGGGGGSGGGGSEVQLLESGGGLVQPGGSLRLSCAASGRTFSEYAMGWFRQAPGKGLEFVSTISWSGGSTYYADSVKGRFTISRDNSKNTLYLQMNSLRAEDTAVYYCAAAGLGTVVSEWDYDYDYWGQGTLVTVSS
B18: COVIC-238 (antibody, V domains shown)
VH: QVQLVQSGSELKKPGASVKVSCKASGYTFTTYVMNWVRQAPGQGLEWMGWINTNTGNPTYAQGFTGRFVFSLDTSVSTASLQISSLKAEDTAVYYCSSEITTLGGMDVWGQGTTVTVSS
VL: ASYVLTQPPSVSVAPGKTARITCGGNNIGSKSVHWYQQKPGQAPVLVIYYDSDRPSGIPERFSGSNSGNTATLTISGVEAGDEADYYCQVWDSISDHRVFGGGTKLTVLG
B19: COVIC-156 (antibody, V domains shown)
VH: EVQLVESGGGLIQPGGSLRLSCAASGVTVSSNYMNWVRQAPGKGLEWVSVIYSGGSTYYADSVKGRFTISRDNSKNTLFLQMNSLRAEDSAVYYCARDLGPYGVDVWGQGTTVTVSS
VL: DIQLTQSPSFLSASVGDRVTITCWASQGISSYLAWYQQKPGKAPKLLIYAASTLQSGVPSRFSGSGSGTEFTLTISSLQPEDFATYYCQELNSYPLTFGQGTRLEIKR
B20: COVIC-336 (antibody, V domains shown)
VH: QITLKESGPTLVKPTQTLTLTCTFSGFSLSSGGVGVGWIRQPPGKALEWLALIYWDDDKRYRPSLKSRLTITRDTSTNQVVLTMTNMDPVDTATYFCARHQIATVFDHWGQGTLVTVSS
VL: QSALTQPASVSGSPGQSITISCTGTSSDVGGYNYVSWYQQHPGKAPKLMIYEVSNRPSGVSSRFSGSKSGNTASLTISGLQAEDEADYYCSSYTRSSPLVAFGGGTKVTVL
B21: COVIC-262 (antibody, V domains shown)
VH: QVQLVQSGAEVKKPGSSVKVSCKASGGTSSSYAISWVRQAPGQGLEWIGGIIPIFDTTKYAQKFQGRVTITADESTNTAYMEVSSLRSEDTAVYYCAKVADRVGASTGELDYWGQGTLVTVSS
VL: EVVLTQSPATLSLSPGERGTLSCRASQSISNYLAWYQQKPGQAPRLLIYNASNRATGVPARFSGSGSGTDFTLTISSLEPEDFAVYYCQQRSNWPPWTFGQGTKVEIKR

What follows are binders tested against SARS-CoV-2 spike RBD (Wuhan-Hu-1) (Severe acute respiratory syndrome …, UniProt P0DTC2) (assay: SPR).

Binder	Kd [nM]
B1	0.233
B2	0.0593
B3	0.429
B4	6.71
B5	15.1
B6	201
B7	115
B8	6.31
B9	1.16
B10	107
B11	185
B12	0.501
B13	44.6
B14	9.86
B15	1.76
B16	0.209
B17	41.3
B18	0.873
B19	0.446
B20	2.14
B21	4.67
